Patent US20240261333A1 (published 2024)
Blank lines part the entries; values can stand above or below the binder they belong to.

Experiments:
[1] = biological target: T1, SRSF6 (human, UniProt Q13247 1-344); experiment: co-IP with anti-FLAG, C-FLAG B3GNT2, mass spectrometry
T1 construct: also called NP_006266.2
T1 sequence (looked up): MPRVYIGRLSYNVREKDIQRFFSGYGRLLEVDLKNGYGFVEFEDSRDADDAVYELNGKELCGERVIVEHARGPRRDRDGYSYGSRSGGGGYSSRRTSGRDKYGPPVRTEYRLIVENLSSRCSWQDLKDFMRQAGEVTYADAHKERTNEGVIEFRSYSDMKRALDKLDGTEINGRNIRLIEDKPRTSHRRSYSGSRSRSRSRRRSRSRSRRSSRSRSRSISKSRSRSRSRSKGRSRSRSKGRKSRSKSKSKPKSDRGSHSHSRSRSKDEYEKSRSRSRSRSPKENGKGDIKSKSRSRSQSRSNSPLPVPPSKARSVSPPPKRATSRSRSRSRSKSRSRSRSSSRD
Procedure: Cells were plated in 10-cm cell culture dishes and grown to 60-80% confluency. For each condition, two biological replicates were harvested for co-IP. Cells were washed with PBS and 4 mL of lysis buffer (20 mM HEPES, 1% Triton X-100, 150 mM NaCl, 1 mM EDTA, and 10% glycerol) containing protease inhibitor cocktail was added. Cells were scraped and lysate was incubated at 4° C. under rotary agitation for 1 h. Lysate was centrifuged at 14,000×g for 10 min at 4° C. Supernatant was transferred to a new tube and an aliquot was taken as the input. […] For Western blots, 10 μg/mL Chicken Anti-FLAG (Aves labs ET-DY100) and IgY control (R&D Systems AB-101-C) antibodies were biotinylated (Thermo Fisher Scientific 90407) and added to the respective conditions. Lysates with antibodies were incubated at 4° C. under rotary agitation overnight. For each mL of lysate, 50 μL of Pierce Protein A/G Magnetic Beads (Mass spectrometry; Thermo Fisher Scientific 88803) or Pierce Streptavidin Magnetic Beads (Western blot; Thermo Fisher Scientific 88817) was washed twice with lysis buffer. Lysates with antibodies were added to the beads and incubated at 4° C. under rotary agitation for 4 h. Beads were washed with lysis buffer 3 times and resuspended in lysis buffer for storage.
Magnetic beads were resuspended in 100 mM Tris pH 7.8, reduced, alkylated and digested with trypsin at 37° ° C. overnight. This solution was subjected to solid phase extraction to concentrate the peptides and remove unwanted reagents followed by injection onto a Shimadzu HPLC with fraction collector. Eight fractions were collected and after concentration were injected on a Waters NanoAcquity HPLC equipped with a self-packed Aeris 3 μm C18 analytical column 0.075 mm by 20 cm, (Phenomenex). Peptides were eluted using standard reverse-phase gradients. The effluent from the column was analyzed using a Thermo Orbitrap Elite mass spectrometer (nanospray configuration) operated in a data dependent manner for 54 minutes. The resulting fragmentation spectra were correlated against the known database using Proteome Discover 1.4 (Thermo Fisher Scientific).

[2] = biological target: RPL34 (human, UniProt P49207 2-117); experiment: anti-FLAG co-IP from lysate of N-FLAG B3GNT2 cells, mass spectrometry
[3] = biological target: T2, RCN1 (human, UniProt Q15293 30-331); experiment: as above
T2 construct: also called NP_002892.1
T2 sequence (looked up): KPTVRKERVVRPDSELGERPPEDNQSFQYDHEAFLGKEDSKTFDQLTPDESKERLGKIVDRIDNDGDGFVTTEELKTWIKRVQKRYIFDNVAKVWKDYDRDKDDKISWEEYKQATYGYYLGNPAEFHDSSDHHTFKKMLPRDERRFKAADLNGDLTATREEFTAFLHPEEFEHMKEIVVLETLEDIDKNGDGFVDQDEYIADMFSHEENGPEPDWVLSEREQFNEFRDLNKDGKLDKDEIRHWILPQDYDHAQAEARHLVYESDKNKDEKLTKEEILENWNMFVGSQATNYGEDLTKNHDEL

[4] = biological target: T3, IFI16 (human, UniProt Q16666-2 1-729, limits assumed); experiment: as above
T3 construct: also called NP_001193496.1 (+3)
T3 sequence (looked up): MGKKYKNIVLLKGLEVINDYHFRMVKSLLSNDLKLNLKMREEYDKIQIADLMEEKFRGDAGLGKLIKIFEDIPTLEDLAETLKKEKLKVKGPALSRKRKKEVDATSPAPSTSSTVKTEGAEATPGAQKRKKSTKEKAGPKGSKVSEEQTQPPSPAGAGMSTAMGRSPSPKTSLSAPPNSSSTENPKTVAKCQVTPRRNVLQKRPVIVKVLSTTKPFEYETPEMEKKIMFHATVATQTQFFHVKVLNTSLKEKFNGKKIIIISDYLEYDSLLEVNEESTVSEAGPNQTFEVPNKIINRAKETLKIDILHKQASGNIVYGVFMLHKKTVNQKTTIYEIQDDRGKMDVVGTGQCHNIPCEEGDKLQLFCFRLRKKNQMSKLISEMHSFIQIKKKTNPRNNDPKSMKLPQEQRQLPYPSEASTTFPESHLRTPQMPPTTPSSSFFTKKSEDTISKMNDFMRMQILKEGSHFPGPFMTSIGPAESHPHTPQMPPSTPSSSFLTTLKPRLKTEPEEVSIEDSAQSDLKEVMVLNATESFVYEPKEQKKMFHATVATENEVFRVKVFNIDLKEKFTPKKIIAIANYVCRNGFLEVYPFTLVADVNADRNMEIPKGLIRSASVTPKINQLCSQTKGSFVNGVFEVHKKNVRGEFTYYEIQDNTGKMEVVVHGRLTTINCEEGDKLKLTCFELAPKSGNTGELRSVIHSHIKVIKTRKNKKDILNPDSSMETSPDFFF

[5] = biological target: T4, SFXN3 (human, UniProt Q9BWM7 1-321); experiment: as above
T4 construct: also called NP_112233.2
T4 sequence (looked up): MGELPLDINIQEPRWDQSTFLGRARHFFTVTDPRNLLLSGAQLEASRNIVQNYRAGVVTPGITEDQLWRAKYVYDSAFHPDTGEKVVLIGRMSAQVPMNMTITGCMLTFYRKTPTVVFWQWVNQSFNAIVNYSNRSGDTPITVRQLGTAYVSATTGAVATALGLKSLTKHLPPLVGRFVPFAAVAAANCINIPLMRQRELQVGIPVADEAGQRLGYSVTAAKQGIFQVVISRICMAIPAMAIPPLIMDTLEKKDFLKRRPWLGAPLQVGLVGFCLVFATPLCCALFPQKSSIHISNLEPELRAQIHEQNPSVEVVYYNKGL

B1: C-terminal FLAG tagged B3GNT2 (enzyme, human, UniProt Q9NY97 1-397, looked up)
chain: MSVGRRRIKLLGILMMANVFIYFIMEVSKSSSQEKNGKGEVIIPKEKFWKISTPPEAYWNREQEKLNRQYNPILSMLTNQTGEAGRLSNISHLNYCEPDLRVTSVVTGFNNLPDRFKDFLLYLRCRNYSLLIDQPDKCAKKPFLLLAIKSLTPHFARRQAIRESWGQESNAGNQTVVRVFLLGQTPPEDNHPDLSDMLKFESEKHQDILMWNYRDTFFNLSLKEVLFLRWVSTSCPDTEFVFKGDDDVFVNTHHILNYLNSLSKTKAKDLFIGDVIHNAGPHRDKKLKYYIPEVVYSGLYPPYAGGGGFLYSGHLALRLYHITDQVHLYPIDDVYTGMCLQKLGLVPEKHKGFRTFDIEEKNKNNICSYVDLMLVHSRKPQEMIDIWSQLQSAHLKC
notes: FLAG-tagged ORF overexpressed in A375 cells; pulled down from the lysate with mouse anti-FLAG; also called C-FLAG B3GNT2; C-term flag; not shown: C-terminal FLAG tag
co-IP/MS count, C-term flag [1]: 4

co-IP mass spectrometry count [2]: 0 | co-IP mass spectrometry count [3]: 0 | co-IP mass spectrometry count [4]: 0 | co-IP mass spectrometry count [5]: 0
B2: N-terminal FLAG tagged B3GNT2 (enzyme, human, UniProt Q9NY97 1-397, looked up)
chain: B1 chain
notes: Bait of the co-IP; pulled down from cell lysate with mouse anti-FLAG antibody; also called N-FLAG B3GNT2; N-term FLAG; not shown: N-terminal FLAG tag
